{
  "source": "patent US20050019306",
  "biological_target": "p48-VP16 TAD (Homo sapiens / Herpes simplex virus) (UniProt Q00978)",
  "sequence (Q00978 1-393, tags or fused parts left off)": "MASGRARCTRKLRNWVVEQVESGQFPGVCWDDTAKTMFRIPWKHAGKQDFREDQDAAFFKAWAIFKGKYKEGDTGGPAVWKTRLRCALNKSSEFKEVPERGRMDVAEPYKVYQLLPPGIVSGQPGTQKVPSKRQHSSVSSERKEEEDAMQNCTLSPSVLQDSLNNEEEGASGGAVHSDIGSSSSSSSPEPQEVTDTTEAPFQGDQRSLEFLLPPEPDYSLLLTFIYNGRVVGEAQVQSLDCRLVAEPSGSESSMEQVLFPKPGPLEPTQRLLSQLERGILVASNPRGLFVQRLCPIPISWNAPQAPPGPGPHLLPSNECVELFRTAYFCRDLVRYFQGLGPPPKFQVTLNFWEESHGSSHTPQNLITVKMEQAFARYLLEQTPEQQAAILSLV",
  "assay": "cell_activity",
  "conditions": "293T ISRE-Luc reporter",
  "data": [
    {"substance": "5x ISG54 ISRE luciferase reporter", "values": [
      {"measurement": "activity (fold relative to p48-S2C)", "result": 3}
    ]}
  ]
}
